Data published in patent publication US20240218057A1 (ROCKEFELLER UNIVERSITY, published 2024).

biological target: T1, SARS-COV-2 RBD (SARS-COV-2, UniProt P0DTC2 319-539); test: ELISA, RBD coated on plate
T1 construct: also called WT RBD

Binder	EC50
C915 (antibody, V domains shown) VH: QVQLQESGPGLVKPSQTLSLTCTVSGGSISSGDYYWSWIRQPPGKGLEWIGYIYYSDSTYYNPSLRTRVTISVDTSKNQFSLKLTSVTAADTAVYYCARAMITFGGVIVLYDYWGQGTLVTVSS VL: QSALTQPPSASGSPGQSVTISCTGTSSDVGGYNYVSWYQQHPGKAPKLMIYEVTKRPSGVPARFSGSKSGNTASLTVSGLQAEDEADYYCSSYAGSILLYVFGTGTKVTVL	3.49 ng/mL
C916 (antibody, V domains shown) VH: EVQLVESGGGLVQPGGSLRLSCAASGFTFSNYDMHWVRQATGRGLEWVSTIGTAGDTYYPGSVKGRFTISRENAKNSLYLQMNSLRAGDTALYYCARVRYDSSGYFWSLDYWGQGTLVTVSS VL: not shown	1.97 ng/mL
C917 (antibody, V domains shown) VH: EVQLVESGGGLVQPGGSLRLSCAASGFTFSNYDMHWVRQATGKGLDWVSTIGTAGDTYYPGSVKGRFTISRENAKNSLYLQMNSLRAGDTAVYYCARVRFDTSGYFWSLDYWGQGTLVTVSS VL: not shown	1.05 ng/mL
C918 (antibody, V domains shown) VH: QVQLVESGGGLVKPGGSLRLSCTASGFTFSDYYMTWLRQAPGKGLEWVSYISSTSPYTSYADSVKGRFTISRDNARNSVYLQMNSLRAEDTAIYYCARVPPPQRLHPFDVWGQGTMVTVSS VL: DIQMTQSPSTLSASVGDRVTITCRASQSISSWLAWYQQKPGKAPKLLIYQASSLESGVPSRFSGSGSGTDFTLTISSLQPDDFATYYCQQYFRYSWTFGQGTKVEI	1.78 ng/mL
C920 (antibody, V domains shown) VH: QLQLQESGPGLVKPSETLSLTCAVSGGSISNSPFYWGWIRQPPGKGLECIGSIYYSGSTYYNPSLKSRVTISVDTSKKQFSLKLSSVTAADTAVYYCARHFADGSGRVVDSWGQGILVTVSS VL: EIVLTQSPATLSLSPGERATLSCRASQSVSSYLAWYQQKPGQAPSLLIYDVSNRATGIPARFSGSGSGTDFTLTISSLEPEDFAVYYCQQRINWPLYTFGQGTKLEIK	2.35 ng/mL
C921 (antibody, V domains shown) VH: QLQLQESGPGLVKPSETLSLTCAVSGGSISNSPFYWAWIRQPPGKGLECIGSIYYTGSTYYNPSLKSRVTISVDTSTKQFSLKLRSVTAADTAVYYCARHFADGSGRVVDYWGQGTLVTVSS VL: EIVLTQSPATLSLSPGERATLSCRASQSVTTYLAWYQQKPGQAPRLLIYDVSSRATGIPARFSGSGSGTDFTLTISSLEPEDFAVYYCQQRSNWPLYTFGQGTKLEIK	3.91 ng/mL
C922 (antibody, V domains shown) VH: QVQLVESGGGLVKPGGSLRLSCAGSGFTFTDYYMAWIRQAPGKGLEWVSYISTSDRFINYADSVKGRFTISRDDAKNSLYLQMNSLRAEDTAVYYCARDGGGYDRFDHWGQGTLVTVSS VL: DIQMTQSPSSLSASVGDRVTITCQASQDISNLLNWYQQKAGKAPKLLIYDASNLETGVPSRFSGSGSGTDFTFTISSLQPEDIATYYCLQYDNLPLTFGQGTKLEIK	2.42 ng/mL
C923 (antibody, V domains shown) VH: QVQLVESGGGLVKPGGSLRLSCAASGFTFSDYHMTWIRQAPGKGLEWVSYISNRSTYRNYADSVKGRFTISRDNAKNSLYLQMNSLRAEDTAVYYCARDGGAYDRFDYWGQGTLVTVSS VL: DIQMTQSPSSLSASVGDRVTITCQASQDIKKFLNWYQQKPGKAPKLLIYDASNLETGVPSRFSGSGSGTDLTFTISSLQPEDIATYYCQQYDNLPLTFGQGTKLEIK	1.95 ng/mL
C924 (antibody, V domains shown) VH: QVQLVESGGGVVQPGRSLRLSCAASGFTFSSYGMHWVRQAPGKGLEWVAVISDDGSNKYYADSVKGRFTISRDNSKNTLYLQMNSLRAEDTAVYYCAKSWWLSENWFDPWGQGTLVTVSS VL: EIVMTQSPATLSVSPGERATLSCRASQSVSSNLAWYQQKPGQAPRLLIYGASTRATGIPARFSGTGSGTEFTLTISSLQSEDFAVYYCQQYNNWPLTFGGGTKVEIK	2.5 ng/mL
